B1: VTI1B (parent)
chain: ANETLAEMEEELRYAPLSFRNPMM

Variants of: B1
Experiment: protein stability index of a GFP-peptide fusion (GPS, HEK-293T) (PSI 1-6); higher = more stable
Settings: c terminus: a fixed tail appended
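Further: lentivirally expressed fusions sorted by FACS into six bins by GFP to DsRed ratio, PSI derived from sequencing read proportions per bin multiplied by bin number.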

Row | Variant | protein stability index
1 | ANETLAEMEHELRYAPLSFRNPMM | 3.06
2 | ANETLAEMEWELRYAPLSFRNPMM | 1.96
3 | ANETLAEMEDELRYAPLSFRNPMM | 1.62
4 | ANETLAEMEFELRYAPLSFRNPMM | 2.75
5 | ANETLAEMENELRYAPLSFRNPMM | 2.55
6 | ANETLAEMEIELRYAPLSFRNPMM | 2.05
7 | ANETLAEMELELRYAPLSFRNPMM | 2.05
8 | ANETLAEMEAELRYAPLSFRNPMM | 2.04
9 | ANETLAEMEPELRYAPLSFRNPMM | 2.73
10 | ANETLAEMEKELRYAPLSFRNPMM | 2.73
11 | ANETLAEMECELRYAPLSFRNPMM | 2.16
12 | ANETLAEMEQELRYAPLSFRNPMM | 3.3
13 | ANETLAEMEMELRYAPLSFRNPMM | 1.87
14 | ANETLAEMEYELRYAPLSFRNPMM | 1.69
15 | ANETLAEMEGELRYAPLSFRNPMM | 1.49
16 | ANETLAEMEVELRYAPLSFRNPMM | 1.82
17 | ANETLAEMETELRYAPLSFRNPMM | 3.02
18 | ANETLAEMESELRYAPLSFRNPMM | 2.56
19 | ANETLAEMERELRYAPLSFRNPMM | 1.17
20 | ANYTLAEMEEELRYAPLSFRNPMM | 1.94
21 | ANSTLAEMEEELRYAPLSFRNPMM | 2.27
22 | ANLTLAEMEEELRYAPLSFRNPMM | 1.38
23 | ANKTLAEMEEELRYAPLSFRNPMM | 2.85
24 | ANMTLAEMEEELRYAPLSFRNPMM | 2.1

Row | Variant | protein stability index
25 | ANNTLAEMEEELRYAPLSFRNPMM | 2.43
26 | ANITLAEMEEELRYAPLSFRNPMM | 2.1
27 | ANWTLAEMEEELRYAPLSFRNPMM | 2.29
28 | ANPTLAEMEEELRYAPLSFRNPMM | 2.26
29 | ANVTLAEMEEELRYAPLSFRNPMM | 2.13
30 | ANQTLAEMEEELRYAPLSFRNPMM | 2.53
31 | ANTTLAEMEEELRYAPLSFRNPMM | 2.01
32 | ANECLAEMEEELRYAPLSFRNPMM | 1.69
33 | ANERLAEMEEELRYAPLSFRNPMM | 1.99
34 | ANEWLAEMEEELRYAPLSFRNPMM | 1.99
35 | ANEKLAEMEEELRYAPLSFRNPMM | 2.72
36 | ANEILAEMEEELRYAPLSFRNPMM | 2.4
37 | ANEMLAEMEEELRYAPLSFRNPMM | 2.07
38 | ANEQLAEMEEELRYAPLSFRNPMM | 2.54
39 | ANEVLAEMEEELRYAPLSFRNPMM | 1.9
40 | ANEELAEMEEELRYAPLSFRNPMM | 3.26
41 | ANEALAEMEEELRYAPLSFRNPMM | 2.15
42 | ANESLAEMEEELRYAPLSFRNPMM | 2.58
43 | ANEYLAEMEEELRYAPLSFRNPMM | 1.23
44 | ANENLAEMEEELRYAPLSFRNPMM | 2.79
45 | ANEGLAEMEEELRYAPLSFRNPMM | 2.39
46 | ANEDLAEMEEELRYAPLSFRNPMM | 2.33
47 | ANEFLAEMEEELRYAPLSFRNPMM | 2.12
48 | ANELLAEMEEELRYAPLSFRNPMM | 2.47

Row | Variant | protein stability index
49 | ANEHLAEMEEELRYAPLSFRNPMM | 1.83
50 | ANEPLAEMEEELRYAPLSFRNPMM | 2.41
51 | ANETLAEMEETLRYAPLSFRNPMM | 3.25
52 | ANETLAEMEEDLRYAPLSFRNPMM | 2.13
53 | ANETLAEMEEVLRYAPLSFRNPMM | 1.65
54 | ANETLAEMEEPLRYAPLSFRNPMM | 2.17
55 | ANETLAEMEEFLRYAPLSFRNPMM | 1.66
56 | ANETLAEMEEKLRYAPLSFRNPMM | 3.41
57 | ANETLAEMEEALRYAPLSFRNPMM | 2
58 | ANETLAEMEEMLRYAPLSFRNPMM | 2.45
59 | ANETLAEMEEHLRYAPLSFRNPMM | 2.89
60 | ANETLAEMEECLRYAPLSFRNPMM | 2.22
61 | ANETLAEMEENLRYAPLSFRNPMM | 2.81
62 | ANETLAEMEEWLRYAPLSFRNPMM | 1.55
63 | ANETLAEMEEQLRYAPLSFRNPMM | 1.95
64 | ANETLAEMEESLRYAPLSFRNPMM | 3.02
65 | ANETLAEMEEYLRYAPLSFRNPMM | 2.51
66 | ANETLAEMEERLRYAPLSFRNPMM | 2.31
67 | ANETLAEMEELLRYAPLSFRNPMM | 2.29
68 | ANETLAEMEEILRYAPLSFRNPMM | 2.69
69 | ANETLAEMPEELRYAPLSFRNPMM | 3.22
70 | ANETLAEMDEELRYAPLSFRNPMM | 2.85
71 | ANETLAEMGEELRYAPLSFRNPMM | 2.19
72 | ANETLAEMLEELRYAPLSFRNPMM | 2.45

Row | Variant | protein stability index
73 | ANETLAEMAEELRYAPLSFRNPMM | 2.44
74 | ANETLAEMHEELRYAPLSFRNPMM | 3.27
75 | ANETLAEMTEELRYAPLSFRNPMM | 2.94
76 | ANETLAEMWEELRYAPLSFRNPMM | 1.3
77 | ANETLAEMVEELRYAPLSFRNPMM | 1.66
78 | ANETLAEMFEELRYAPLSFRNPMM | 2.71
79 | ANETLAEMMEELRYAPLSFRNPMM | 2.19
80 | ANETLAEMCEELRYAPLSFRNPMM | 2.33
81 | ANETLAEMIEELRYAPLSFRNPMM | 3.61
82 | ANETLAEMNEELRYAPLSFRNPMM | 2.87
83 | ANETLAEMKEELRYAPLSFRNPMM | 1.8
84 | ANETLAEMSEELRYAPLSFRNPMM | 2.78
85 | ANETLAEMREELRYAPLSFRNPMM | 1.4
86 | ANETLAEMYEELRYAPLSFRNPMM | 2.48
87 | ANETLAYMEEELRYAPLSFRNPMM | 2.31
88 | ANETLAAMEEELRYAPLSFRNPMM | 2.85
89 | ANETLACMEEELRYAPLSFRNPMM | 2.01
90 | ANETLAWMEEELRYAPLSFRNPMM | 1.57
91 | ANETLASMEEELRYAPLSFRNPMM | 2.84
92 | ANETLARMEEELRYAPLSFRNPMM | 1.17
93 | ANETLANMEEELRYAPLSFRNPMM | 2.61
94 | ANETLATMEEELRYAPLSFRNPMM | 2.53
95 | ANETLAHMEEELRYAPLSFRNPMM | 2.2
96 | ANETLALMEEELRYAPLSFRNPMM | 2.5

Row | Variant | protein stability index
97 | ANETLAFMEEELRYAPLSFRNPMM | 2.1
98 | ANETLAMMEEELRYAPLSFRNPMM | 2.21
99 | ANETLAGMEEELRYAPLSFRNPMM | 1.9
100 | ANETLAQMEEELRYAPLSFRNPMM | 2.31
101 | ANETLAKMEEELRYAPLSFRNPMM | 2.52
102 | ANETLADMEEELRYAPLSFRNPMM | 2.69
103 | ANETLAEMEEEKRYAPLSFRNPMM | 3.27
104 | ANETLAEMEEEGRYAPLSFRNPMM | 2.62
105 | ANETLAEMEEEHRYAPLSFRNPMM | 3.79
106 | ANETLAEMEEEERYAPLSFRNPMM | 3.65
107 | ANETLAEMEEEPRYAPLSFRNPMM | 2.95
108 | ANETLAEMEEEYRYAPLSFRNPMM | 4.21
109 | ANETLAEMEEEQRYAPLSFRNPMM | 3.33
110 | ANETLAEMEEEIRYAPLSFRNPMM | 2.99
111 | ANETLAEMEEERRYAPLSFRNPMM | 2.59
112 | ANETLAEMEEEARYAPLSFRNPMM | 3.14
113 | ANETLAEMEEEVRYAPLSFRNPMM | 1.83
114 | ANETLAEMEEEMRYAPLSFRNPMM | 2.28
115 | ANETLAEMEEENRYAPLSFRNPMM | 4.82
116 | ANETLAEMEEEFRYAPLSFRNPMM | 3.14
117 | ANETLAEMEEETRYAPLSFRNPMM | 3.9
118 | ANETLAEMEEESRYAPLSFRNPMM | 4.33
119 | ANETLAEMEEEWRYAPLSFRNPMM | 2.19
120 | ANETLAEMEEECRYAPLSFRNPMM | 4.37

Row | Variant | protein stability index
121 | ANETLAEMEEEDRYAPLSFRNPMM | 4.49
122 | ANETLAEDEEELRYAPLSFRNPMM | 3.37
123 | ANETLAETEEELRYAPLSFRNPMM | 3.11
124 | ANETLAEYEEELRYAPLSFRNPMM | 2.73
125 | ANETLAEIEEELRYAPLSFRNPMM | 2.8
126 | ANETLAEHEEELRYAPLSFRNPMM | 3.39
127 | ANETLAENEEELRYAPLSFRNPMM | 2.72
128 | ANETLAEFEEELRYAPLSFRNPMM | 2.51
129 | ANETLAESEEELRYAPLSFRNPMM | 3.14
130 | ANETLAEQEEELRYAPLSFRNPMM | 2.62
131 | ANETLAEEEEELRYAPLSFRNPMM | 3.1
132 | ANETLAEPEEELRYAPLSFRNPMM | 3.11
133 | ANETLAEAEEELRYAPLSFRNPMM | 3.28
134 | ANETLAECEEELRYAPLSFRNPMM | 2.94
135 | ANETLAEKEEELRYAPLSFRNPMM | 2.4
136 | ANETLAEREEELRYAPLSFRNPMM | 2.46
137 | ANETLAELEEELRYAPLSFRNPMM | 2.3
138 | ANETLAEVEEELRYAPLSFRNPMM | 2.16
139 | ANETLAEGEEELRYAPLSFRNPMM | 3.19
140 | ANETLAEWEEELRYAPLSFRNPMM | 1.51
141 | ANETLKEMEEELRYAPLSFRNPMM | 2.78
142 | ANETLEEMEEELRYAPLSFRNPMM | 2.77
143 | ANETLREMEEELRYAPLSFRNPMM | 2.67
144 | ANETLGEMEEELRYAPLSFRNPMM | 2.17

Row | Variant | protein stability index
145 | ANETLQEMEEELRYAPLSFRNPMM | 2.79
146 | ANETLYEMEEELRYAPLSFRNPMM | 2.18
147 | ANETLDEMEEELRYAPLSFRNPMM | 3.76
148 | ANETLLEMEEELRYAPLSFRNPMM | 1.88
149 | ANETLFEMEEELRYAPLSFRNPMM | 3.33
150 | ANETLWEMEEELRYAPLSFRNPMM | 2.05
151 | ANETLNEMEEELRYAPLSFRNPMM | 2.75
152 | ANETLHEMEEELRYAPLSFRNPMM | 2.4
153 | ANETLSEMEEELRYAPLSFRNPMM | 2.73
154 | ANETLVEMEEELRYAPLSFRNPMM | 2.16
155 | ANETLTEMEEELRYAPLSFRNPMM | 1.79
156 | ANETLPEMEEELRYAPLSFRNPMM | 2.51
157 | ANETLIEMEEELRYAPLSFRNPMM | 1.85
158 | ANETLMEMEEELRYAPLSFRNPMM | 2.86
159 | ANETLCEMEEELRYAPLSFRNPMM | 2.12
160 | ANETHAEMEEELRYAPLSFRNPMM | 3.14
161 | ANETEAEMEEELRYAPLSFRNPMM | 3.32
162 | ANETSAEMEEELRYAPLSFRNPMM | 2.96
163 | ANETKAEMEEELRYAPLSFRNPMM | 2.16
164 | ANETCAEMEEELRYAPLSFRNPMM | 2.69
165 | ANETVAEMEEELRYAPLSFRNPMM | 2.78
166 | ANETWAEMEEELRYAPLSFRNPMM | 2.01
167 | ANETAAEMEEELRYAPLSFRNPMM | 2.7
168 | ANETGAEMEEELRYAPLSFRNPMM | 2.58

Row | Variant | protein stability index
169 | ANETIAEMEEELRYAPLSFRNPMM | 2.16
170 | ANETNAEMEEELRYAPLSFRNPMM | 3.05
171 | ANETPAEMEEELRYAPLSFRNPMM | 2.73
172 | ANETRAEMEEELRYAPLSFRNPMM | 2.14
173 | ANETTAEMEEELRYAPLSFRNPMM | 3.01
174 | ANETDAEMEEELRYAPLSFRNPMM | 3.62
175 | ANETQAEMEEELRYAPLSFRNPMM | 2.86
176 | ANETYAEMEEELRYAPLSFRNPMM | 2.4
177 | ANETFAEMEEELRYAPLSFRNPMM | 2.96
178 | ANETLAEMEEELMYAPLSFRNPMM | 2.29
179 | ANETLAEMEEELGYAPLSFRNPMM | 1.67
180 | ANETLAEMEEELKYAPLSFRNPMM | 1.46
181 | ANETLAEMEEELDYAPLSFRNPMM | 3.02
182 | ANETLAEMEEELHYAPLSFRNPMM | 1.82
183 | ANETLAEMEEELLYAPLSFRNPMM | 1.7
184 | ANETLAEMEEELCYAPLSFRNPMM | 2.77
185 | ANETLAEMEEELEYAPLSFRNPMM | 2.11
186 | ANETLAEMEEELFYAPLSFRNPMM | 2.01
187 | ANETLAEMEEELAYAPLSFRNPMM | 2.04
188 | ANETLAEMEEELNYAPLSFRNPMM | 1.94

Reference: the supplement of paper PMC10567573
